Biological target: SERINC3(iHA), Serine incorporator 3 with an internal HA tag (UniProt Q13530)

Substance	SERINC3 internalization from the cell surface, relative to wild type NL4.3 Nef (flow cytometry, co-transfected CEM T cells)
HIV-1 NL4.3 Nef S8R (from UniProt P03406 1-206) (natural protein)	50%
HIV-1 NL4.3 Nef I11G (from UniProt P03406 1-206) (natural protein)	0%

From publication PMC7515180
